Reference: the domain aggregation screens of Martell et al. (2025)

Test: soluble fraction after stress (log2 fold change); higher = more stays soluble; pooled small domains, quantitative proteomics
Conditions: stress: 50 degC
Procedure, shortened: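 Pooled custom libraries of small protein domains were each held under stress at 50°C. The read-out, high-throughput quantitative proteomics, tracked how much of each protein stayed soluble. This is reported as a base-two log fold change used to indicate aggregation propensity. Higher values mean more protein remains in solution.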

Sequence | soluble fraction (log2)
HMALQDKYKQLVDTATASGVANLQVREQDGVLYIDGEAPSGSVKDQLWDIYGKIDPNFLSGDVVMNINV | -0.0683
HMALQLPFSFAKRHKVLVESAHEPVKVYHTPSTDFAVFAEVRRFLDQTFVLEEIAENRFEELLTSSFQRD | -1.27
HMALSETIYRLRTEHGLSQGDLAAELDVSRQSISKWETGSSVPELDKLVAMSRLFGVSLDELVLGE | -0.63
HMALSLPDDMTIVRKDGSSLEVRLKSRTVTEIHFERISDSETFQFSIDQLDETTRELVEQYPVM | -0.0919
HMALTAEVLRSLIKHHGLGQSIQRTAKAVGLSASTVKKYFDRIAAANLTWQEAKSRTQEELIASLQPT | -0.358
HMALTARDLGLTHRQADVLHLVLQGKPVKLIARDLGLAEGTVKSHVSAVLRALNVTTRTQAIVAAGRLGLM | -1.92
HMAMDITLPLAEVRRQSLEQIERQYLNELMSKHLGRINRAAEAAGITTRQLHKLLTKYSIRKEDFK | -0.673
HMAMESDELETLVDQLIVDHPDEWSRFVGGDDGDRKKMQGFFTGQIMKATKGQADGRAVAQLLGQKSA | 0.0334
HMAMLSKREAEILKLTAKGHSSTDIAQRLTISVNTVEFHRRRIMQKLNAANVAEAVGKAAELGLFF | -0.438
HMAMSAGEVVERIREHVGHPATIKELMRVLAIPNEERYRFRRRIKQLVEAGELIRIRGNRYGLADR | -1.85
HMAMTITKIEKTSQQKIYYFTDSGRVFKKMSDRSATIAVDDRVELEGGVLGSKFFVTANGSRVKVKEV | -0.516
HMAMYSREKLKKLREDRGLTQYELAKIAGISVVTLNKIESSDSAKPFVKTLNKIAQALGVGIDELS | -0.127
HMAMYYVIGGDGQQYGPIDEATVRGWLGEGRVSAASLSFKTGEAQWIPLRDRPELADVLATA | 0.112
HMANKLSEQIYGSILKDIVNGVYAPREFISEAQIAAKYGVSKAPVKEAMHILASEGFLLSYPKRGYMVN | -0.347
HMANKQLQEKLKNYISENGSLSSAAKAIGLSPATLSTYLKDKYEGNVANVETRLTEIFETVEAANNLL | -0.258
HMANKTISMTTLKLVIQQLSKGISRQSISAQYHISRNTIKKYEKRIKAMDMKIEDILKLSDEEISNLLQ | -1.68
HMANLNFDMSQIVASRYQEKAAELGVTAPSLARTDYNTQEQATYEFVAREIIADYYDDRVAPFNDLIPE | -0.223
HMANNPISMIKIRQILRLHIQGRSKLQIAAQTGISRNTLKKYLKEFEASKLTYDEISELSDKDLEDLFIK | -2.02
HMANTSAVIKQPGLVKLFAQHFVRNGFNAMKAAEAAGFVRPSPTFVRNLADSKPVKDAISELLGPYNDA | -0.0131
HMANWRVGQTINALVSDRMPSGGLLLTVGRQSFVTTRDIPVQPGARIMLEVQQVEPKLVLRLVSA | -1.17
HMAPADLSPEERVVLDALALEPVHVDALAAKLGRRSEELLTSLTLMEMRGLAVAHAGSRYSRATMT | 0.0694
HMAPEEIPLDRVVRLVEQGRVESIVVTGERLEVTLQNGTVYGSTKENGVGFMETLDRYQVPLEQRDFSYEV | -0.0708
HMAPELRSDAQMRRLWALAKENGLDEVGFRAFISDATGREVESTKSLTATEAHRLIEELEAP | -0.388
HMAPEPFIVQITASSLNVRKGPGTSYAVAQTVSKGQVFTIVQQQGGWGKLKSGAGWISLKYTAR | -1.36
HMAPEQWYVLTSGQLPKGPYRLRHIVAMSKGDNWLVARKGAEQWTPLRHLPEFRQAQEANEYIQAIS | -0.968
HMAPFSGVEPREWDSLVERGRQSGEVHAEDVTHVLRHVELTGDVLTDVQSKMAEHGITIDDA | 0.206
HMAPGASEVPDLTSLPAREALLRLTKLGLLPEMEGTGRLVRQQPAAGTRVPKGSKVHLVFEPG | 0.0613
HMAPIEVPYNVFRQQVVEGNVESVATRADTVQGYFETPVTLPARPDAAAAEPVTVERFSTTLPSF | 0.142

Sequence | soluble fraction (log2)
HMAPKRIVLRFGKDISDKPIIYYLVKDYDLVINILKANVNPNKEGTLVLELSGENYDKGIEFLISQGVTVQ | -1.56
HMAPKVHLLKVPVDKIREIIGTGGKVIRQITEETGAKIDISDDGSVKVSSPDQSSIDAATTWITGIIAE | 0.0652
HMAPLATLEAGEDGSVKLPNLAGHSIREVAAALGGAKLSLIPIGSGTSWKQTPAPGAVLHSGDTVTVYF | 0.142
HMAPNDELTRQVISVLSGTPQQAFNYKQISKKLNINDSSERRMVSNILRELAGKGEIVEVYQGKYRSKAPA | 0.0588
HMAPPTAEFFAHLPAEALSAVRRSVEEGNARGIDEAILRVETLDGEAGRVLRGLAARYEYGRILELTQR | 0.117
HMAPQSAAAILRYLSSGAIRGVGPATAQRIVERFGTDSLEIIQNRPKELAAINGISINKALSISEEYAKQY | -0.831
HMAPREELIAIHEALDKLEREDPQVSQLVKLRYFVGMTMAEAADAMDLKKRAAEALWTYGKAWLHREIKKN | -2.85
HMAPRIVTIQIPVDKIRDVIGPGGKVIRSIIERTGVKIDVEDDGRVNVASADGDSAQRAIAIIQELTAT | 0.0444
HMAPSIPSGADIRAAREAAGINLRDFARIVDGPGIAIWSRYETGTPIRVKSISPEVWQKVRDFISQHG | -0.826
HMAPTADSVPFVIRSVVGGAQPFIVLEDGSKLLVGGVYRKYRLVAVENTRIIFEGPRTAIVT | -1.33
HMAPTPAGNLRSLKSEIVNYTRQSSTAYVYTFKDLSSGELYTARASRYYAAAGDTAYISTAAGAITDM | 0.0171
HMAPTVPEVVRLEEGAARSAIEAAGLSVGSVEFRASSDPAGTVLATRPIAGRKVRPSSAVDLVLSDGRTP | 0.0905
HMAPVEEWAKASVMEDPTLVTETMARIFAQQGQIGKARKAYRHLALTYPAKSTYFAAQLKKLNQR | -0.259
HMAPVLTATVNTTSGKLNMRAAASATSAKLTSIPRGATVTVLEKGTTWSRISYGGYTGYVMTQYLKFD | -0.167
HMAPVVELEDVTIVRGKATLLDRVNWVIDETDRWVIVGPNGAGKTTLLQVVSANLHPTSGKAMILDEVL | 0.023
HMAQILEPSVALKKLLELKQAGFEDETLVGWIRKVEFTRPLTPDDLLEWKGAGISQAVIRAAM | -0.0938
HMAQISDEGLLRGLIVEMFEANPAVVEELLGGRDRKKGFVIGQIMKKTKGMANPALLDQLFYEELEKL | -0.867
HMAQTEIPYSEFLREVGNGQIKSVIIEGSEITGFYKTSGTSFNVVAPDDPKLVERLMDQGVEVRAQPT | 0.0919
HMAQVVMPNVVGKTEKDATATLEGKNLKVNVEYNLDATSDDGIVKEQSIKSGENIDEGTEITLKVNKV | -1.07
HMAQWGFNGSEAGDLSFQQGDVIEVVEKVKDDWWRGRVLGSTEIGLFPS | -0.225
HMARDDVIRLVQLSLDHLPAKYADALEWKYVEGLSTKEIAARLELGSEAAESLLARARRAFKNDFQEIFES | -1.41
HMAREFPGTIIKRGSRGPDVRWIQQHIGVKLVDGVFGRGTERAVKQFQSRRRLKADGIVGRQTWAAIHN | -0.999
HMARGATELPYSQLLDRVEAGEITTATTQGNTLLSTARDGKRYITYLPLDTMDEVVPRLDAANVEVKTER | 0.0506
HMARGLRPVPSVFGLDVRQATRTLYAAGFQVSIARGSDVRTRPAAGTLLRVGSTVQLEMPRMESA | -1.54
HMARGTRTRAKLLAAAEVVFARYGYTEASIERITEEAGVGQGTFYLYFASKLEIFEELVDDLNR | -2.87
HMARLEELSNGSIVEGLLSGEAVTVVSTKWYGSSSMEVFYKTNRGSTGSQILYREDEPSLTVLEKS | -0.32
HMARPLHVDALIHLGTEIGSRVGGAHAGPHLLVAGHSPMSELVYARLLGIPTLGWMRGQLTFVNLSK | 0.155
